This note sets out measurements from patent US20200181597A1, “Composition and Application of Arginine-depleting Agents for Cancer, Obesity, Metabolic Disorders, and Related Complications and Comorbidities” (THE HONG KONG POLYTECHNIC UNIVERSITY, priority 2018, published 2020).

For one test, the system named is MDA-MB-231 cells. Kind of test: Trans-well migration and invasion assay. Particulars: 1 U/mL, 24 h. It is filed as cell-based, human. The method, then: (§1) Breast cancer cell lines (human MDA-MB-231 cells and mouse 4T1 cells) were used in these studies. Both migration assay and invasion assay were performed in 24 wells Costar (Corning) Trans-well system (polycarbonate membrane inserts, pore size 8.0 μm). Before the assay, the cells were cultivated in appropriate serum free medium for at least 24 h. One day before seeding cells to the upper chambers, 100 μL diluted matrigel was added to the upper chambers of the inserts for invasion assay. Serum free medium (100 μL) was added to the upper chamber used for migration assay. The 24 well plates were incubated in the incubator for overnight. The next day, cells were trypsinized and counted. In the studies, 3×10^4 cells of 4T1 or 5×10^4 cells of MDA-MB-231, with 200 μL appropriate serum free medium, were seeded into the upper chambers. Appropriate complete medium (750 μL) was added to the lower chambers. For the drug treatment group, 1 U/mL His-rhArg (SEQ ID NO: 101) was added to both chambers. The 24 well plates were incubated at 37° C. humidified atmosphere with 5% CO2 for 20 h (4T1 cells) or 24 h (MDA-MB-231 cells).
(§2) After incubation, the medium in the upper chambers was removed. The trans-well inserts were washed with 1×PBS twice. Cold 100% methanol was added to both upper chambers and lower chambers for 10 min to fix the cells. The inserts were washed with 1×PBS for two times. […]

The test system of another test is 4T1 cells. Kind of test: Trans-well migration and invasion assay. It is filed as cell-based, mouse. As to conditions: 1 U/mL, 20 h. The method, then:
as §1, §2

The subject of the next test is MCF-7 cancer cells. Kind of test: cells. The class given is cell-based, human. As to conditions: MCF-7, single agent. The method, then: (§3) Breast cancer cell lines (e.g. human MCF-7 and MDA-MB-231 cells) were used in these studies. Cancer cells (5×10^3 cells) were seeded in 96-well plates (TPP) with […] complete medium. The plates were incubated in incubator overnight and the cells were allowed to adhere to the plates. […] Each dosage was triplicated in 3 wells to obtain the average change of cell viability. […] The plates were put back into the incubator and further incubated for 4 h. To dissolve the insoluble compound, formazan, formed by MTT, 100 μl of 10% SDS in 0.01 M HCl was added. The plates were incubated at 37° C. overnight. The color change was measured by spectrophotometer at 570 nm. Control set up (without any drug) was used as base to calculate percentage of cell viability which was used to plot the dose response curve by the software Prism 6.0 (GraphPad) to find the IC50 values. […] CalcuSyn software (Biosoft) was used for calculating the CI values.

Test [1] relates to MDA-MB-231 breast cancer cells. Kind of test: cells. As to conditions: MDA-MB-231, single agent. The class given is cell-based, human. The method, then: as §3

B1: His-rhArg: recombinant human arginase with His tag, SEQ ID NO: 101 (protein)
chain: MHHHHHHMSAKSRTIGIIGAPFSKGQPRGGVEEGPTVLRKAGLLEKLKEQECDVKDYGDLPFADIPNDSPFQIVKNPRSVGKASEQLAGKVAEVKKNGRISLVLGGDHSLAIGSISGHARVHPDLGVIWVDAHTDINTPLTTTSGNLHGQPVSFLLKELKGKIPDVPGFSWVTPCISAKDIVYIGLRDVDPGEHYILKTLGIKYFSMTEVDRLGIGKVMEETLSYLLGRKKRPIHLSFDVDGLDPSFTPATGTPVVGGLTYREGLYITEEIYKTGLLSGLDIMEVNPSLGKTPEEVTRTVNTAVAITLACFGLAREGNHKPIDYLNPPK
modifications: His tag; His-rhArg, Synthesized in Lab
For B1, the “number of cancer cells that can migrate and invade via the transwell inserts” value in the test with MDA-MB-231 cells and with 4T1 cells was “decreased” in each case. For the same molecule, the figures for the IC50 (in the test with MCF-7 cancer cells; in test [1]) were 0.7869 U/mL and 0.9522 U/mL, respectively.
